{
  "source": "the supplement of paper PMC9732359",
  "note": "± gives the uncertainty stated by the source.",
  "data": [
    {"experiment": "protein stability index of a GFP-peptide fusion (yeast GPS) (PSI 1-4); higher = more stable; sorted into four equal gates, so the index is relative within each strain", "conditions": "san1∆", "outline": "(§1)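 The protein stability index of a peptide was calculated by multiplying its read frequency in each gate by that gate's number and adding the products. The peptides were tiled 17-residue stretches of yeast proteins, fused downstream of GFP on a Cherry-expressing plasmid and carried in yeast as a pooled library. Mid-log cultures in leucine-free medium were sorted into four equal gates by GFP/Cherry ratio, and each gate's plasmids were PCR-amplified and Illumina-sequenced.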", "values": [
      {"sequence": "GLDATKLYVSHIQVNQA [RPL17A]", "protein stability index": "3 ± 0.043"}
    ]},
    {"experiment": "protein stability index of a GFP-peptide fusion (yeast GPS) (PSI 1-4); higher = more stable; sorted into four equal gates, so the index is relative within each strain", "conditions": "ubr1∆", "outline": "as §1", "values": [
      {"sequence": "FQIIDTLLPGLQDEVMN [RPS2]", "protein stability index": "2.09 ± 0.05"},
      {"sequence": "FQIVIEPLAIALSMGKS [ARP7]", "protein stability index": "1.5 ± 0.07"},
      {"sequence": "FQMNCYAKEDAFSYPRM [RPN2]", "protein stability index": "2.61 ± 0.047"},
      {"sequence": "FQNSYKPALKVSKEGLY [YMR129W/POM152]", "protein stability index": "3.07 ± 0.1"},
      {"sequence": "FQQIQYENKQLYFPDDY [POP1]", "protein stability index": "2.73 ± 0.086"},
      {"sequence": "FQSQQRRKDTSMVLFFV [RPB9]", "protein stability index": "1.46 ± 0.044"},
      {"sequence": "FRAVGEGNAQLVAIFGG [FAS1]", "protein stability index": "1.36 ± 0.055"},
      {"sequence": "FRETTHSKRELDSGDDQ [BRR2]", "protein stability index": "2.78 ± 0.16"},
      {"sequence": "FRSYMDQEKKYGMSITE [RPB2]", "protein stability index": "2.75 ± 0.032"},
      {"sequence": "FSFGKPFFSSNTSSLQS [YIL149C/MLP2]", "protein stability index": "2.926 ± 0.028"},
      {"sequence": "FSFGQNNNNTNTQPSAS [YGR119C/NUP57]", "protein stability index": "2.78 ± 0.043"},
      {"sequence": "FSFGTSQPNNTPSFSFG [YLR335W/NUP2]", "protein stability index": "2.59 ± 0.037"},
      {"sequence": "FSGKGVHKLRHYLVNLT [GRR1]", "protein stability index": "1.45 ± 0.029"},
      {"sequence": "FSKILPAALDGLMKSYK [ESC2]", "protein stability index": "2.54 ± 0.056"},
      {"sequence": "FSNKYLELCKLASNNLE [RRI2]", "protein stability index": "2.02 ± 0.043"},
      {"sequence": "FSNVNELQEKNVELLNC [YIL149C/MLP2]", "protein stability index": "3.1 ± 0.075"},
      {"sequence": "FSPVISQSLTSILVIVQ [SWI1]", "protein stability index": "1.33 ± 0.04"},
      {"sequence": "FSSKNEWRKSAIANTLL [PRP8]", "protein stability index": "2.72 ± 0.045"},
      {"sequence": "FTFGQSTSENKISEGSA [YOR098C/NUP1]", "protein stability index": "3.37 ± 0.11"},
      {"sequence": "FTGQGSQEQGMGMDLYK [FAS1]", "protein stability index": "3.4 ± 0.088"},
      {"sequence": "FTLTYDIIETFSSKRKT [YMR129W/POM152]", "protein stability index": "2.33 ± 0.056"},
      {"sequence": "FTNIISRNKALELNLSV [YJL039C/NUP192]", "protein stability index": "2.69 ± 0.088"},
      {"sequence": "FTQLKKNIPKTRYNRDY [SNU114]", "protein stability index": "2.79 ± 0.051"},
      {"sequence": "FTQQELQKQMGIGSLTD [RPC34]", "protein stability index": "2.48 ± 0.11"},
      {"sequence": "FTSHTRLRQGAAKLRTL [RPL2A]", "protein stability index": "1.95 ± 0.039"},
      {"sequence": "FTTNKSKDVSRLLSALG [SRP21]", "protein stability index": "2.8 ± 0.081"},
      {"sequence": "FVIPILIKMSRSPPRPP [PRP28]", "protein stability index": "2.14 ± 0.073"},
      {"sequence": "FVTRKSRKRAKKMTKKA [PRP8]", "protein stability index": "2.95 ± 0.12"},
      {"sequence": "FVVGVDNVSSQQMHEVR [RPP0]", "protein stability index": "2.74 ± 0.08"},
      {"sequence": "FVVKLDTVDRLIIKYQK [GAL11]", "protein stability index": "2 ± 0.039"},
      {"sequence": "FWFDKLVTKILPLKKNE [YCG1]", "protein stability index": "2.43 ± 0.24"},
      {"sequence": "FWSLHSSTYYNLDYLFE [NUT1]", "protein stability index": "1.95 ± 0.029"},
      {"sequence": "FYERLDKSTTQLRKEIQ [MED11]", "protein stability index": "2.9 ± 0.072"},
      {"sequence": "GAEVDEARINELLSSLE [RPP2B]", "protein stability index": "3.21 ± 0.1"},
      {"sequence": "GAFDQLKQNAIRARIPF [SRP54]", "protein stability index": "3.03 ± 0.07"},
      {"sequence": "GAKGSTLIVVPFNQGSK [FAS2]", "protein stability index": "1.85 ± 0.073"},
      {"sequence": "GAKNIEITVVKPDSDIV [PRE6]", "protein stability index": "2.67 ± 0.059"},
      {"sequence": "GALHFVQQSEKLRNEVE [YIL149C/MLP2]", "protein stability index": "3.16 ± 0.12"},
      {"sequence": "GALQESVEAYLVSLFED [HHT1]", "protein stability index": "2.05 ± 0.08"},
      {"sequence": "GAMGLLSSAGAKSTVET [RIP1]", "protein stability index": "2.35 ± 0.09"},
      {"sequence": "GANPRVLSTFTAEFGKI [RPN10]", "protein stability index": "2.18 ± 0.073"},
      {"sequence": "GAPGANARMPGMPNMPG [SRP54]", "protein stability index": "2.9 ± 0.11"},
      {"sequence": "GAQIVSKQIFTHPKDTF [ARP9]", "protein stability index": "1.68 ± 0.033"},
      {"sequence": "GARVFGALKGASDGGLY [RPL5]", "protein stability index": "3.11 ± 0.19"},
      {"sequence": "GASGVDDFQNFFDPKPF [SWI1]", "protein stability index": "3.11 ± 0.046"},
      {"sequence": "GASIIQVIFEIFEISLQ [YML103C/NUP188]", "protein stability index": "2.06 ± 0.043"},
      {"sequence": "GASNGDDSNGGNGEGLG [BRN1]", "protein stability index": "3.19 ± 0.084"},
      {"sequence": "GATSKPAFSFGAKPEEK [YJL041W/NSP1]", "protein stability index": "3.11 ± 0.073"},
      {"sequence": "GATVFVNHLLLFAREIA [DPB4]", "protein stability index": "1.72 ± 0.039"},
      {"sequence": "GCGNTQPTIRKDGLKLV [RPO21]", "protein stability index": "2.41 ± 0.045"},
      {"sequence": "GCIPGNRKRIVTLRKSL [RPL3]", "protein stability index": "1.26 ± 0.061"},
      {"sequence": "GCVDIDDALHAKKLPNG [DIS3]", "protein stability index": "3.14 ± 0.037"},
      {"sequence": "GDHNKLRSTIANLLQIN [YML103C/NUP188]", "protein stability index": "1.87 ± 0.035"},
      {"sequence": "GDIKPEFSPRLHNIWSN [YML103C/NUP188]", "protein stability index": "3.51 ± 0.11"},
      {"sequence": "GDIKVLDSNFNLQREID [RPN14]", "protein stability index": "3.26 ± 0.082"},
      {"sequence": "GDVVLAAAYSHELPRYG [RPL5]", "protein stability index": "2.97 ± 0.074"},
      {"sequence": "GEGERFTVDKKIAERSL [SKP1]", "protein stability index": "3.37 ± 0.24"},
      {"sequence": "GEIIDISAFTQFLRLIF [ARP9]", "protein stability index": "2.94 ± 0.065"},
      {"sequence": "GELEQAQAWINLGEYYA [RPN7]", "protein stability index": "3.26 ± 0.057"},
      {"sequence": "GELKRGNESVKPQFENH [MED11]", "protein stability index": "2.97 ± 0.16"},
      {"sequence": "GESARRFQKCFPPGVIG [RPC40]", "protein stability index": "2.83 ± 0.12"},
      {"sequence": "GFALNSDIVFIHQNAGR [BRR2]", "protein stability index": "2.02 ± 0.057"},
      {"sequence": "GFANSLTFILGQLLSVK [YML031W/NDC1]", "protein stability index": "1.26 ± 0.12"},
      {"sequence": "GFIETTELLNIYDSEDP [RPN3]", "protein stability index": "3.06 ± 0.075"},
      {"sequence": "GFTASVSNQENAGTDIV [MED1]", "protein stability index": "3.07 ± 0.072"},
      {"sequence": "GFVIQDRETALDFIGRR [RPB2]", "protein stability index": "3 ± 0.11"},
      {"sequence": "GGDGRDYKGAKLNVVGW [RRI1]", "protein stability index": "3.23 ± 0.084"},
      {"sequence": "GGLNDPRLGSIDRNLKC [RPO21]", "protein stability index": "3.33 ± 0.086"},
      {"sequence": "GGQRSLIALSLIMALLQ [SMC2]", "protein stability index": "2.24 ± 0.036"},
      {"sequence": "GGSAKPSLKFKPKAVAR [RPC53]", "protein stability index": "2.92 ± 0.073"},
      {"sequence": "GGSTTNNTTTTSTKPSF [YOR098C/NUP1]", "protein stability index": "2.75 ± 0.067"},
      {"sequence": "GGVMANRKIARMRHSKR [YOR098C/NUP1]", "protein stability index": "3.32 ± 0.1"},
      {"sequence": "GHIVSLELTTGATYRGK [SMD3]", "protein stability index": "2.34 ± 0.053"},
      {"sequence": "GHLNGHTPTIASYLTPL [SSN2]", "protein stability index": "2.54 ± 0.035"},
      {"sequence": "GHPMTKSVYETPKITAA [SEC65]", "protein stability index": "1.91 ± 0.062"},
      {"sequence": "GHYQAFIRDELDENKWY [UBP6]", "protein stability index": "1.85 ± 0.063"},
      {"sequence": "GIDINTKIFNSVAEVFQ [YCG1]", "protein stability index": "2.86 ± 0.067"},
      {"sequence": "GIHILLYSGLIIDEIIT [RPC82]", "protein stability index": "1.21 ± 0.082"},
      {"sequence": "GINQILGNEKNQASTSK [CDC53]", "protein stability index": "3.2 ± 0.073"},
      {"sequence": "GIRIISLTYKKISLRDI [RPN3]", "protein stability index": "1.5 ± 0.053"},
      {"sequence": "GIRYIRLKQVFNRALDQ [NNF1]", "protein stability index": "2.12 ± 0.025"},
      {"sequence": "GISINNMMEHWDYLQLT [RPO31]", "protein stability index": "2.65 ± 0.065"},
      {"sequence": "GISLVMEIVANAKESNY [MED1]", "protein stability index": "2.15 ± 0.043"},
      {"sequence": "GISNGSESKDSDKPSLP [YLR335W/NUP2]", "protein stability index": "2.79 ± 0.13"},
      {"sequence": "GISSAYIKSATLYSVKS [SNU114]", "protein stability index": "1.75 ± 0.17"},
      {"sequence": "GITGNLDRIPMHSYFIF [COB]", "protein stability index": "2.43 ± 0.12"},
      {"sequence": "GKDCKLQNLQRIIRKKI [RRI2]", "protein stability index": "3.05 ± 0.13"},
      {"sequence": "GKDLSPAINYTKLKNAV [QCR2]", "protein stability index": "1.54 ± 0.048"},
      {"sequence": "GKDRIAINVFPEGYKAK [RPO31]", "protein stability index": "2.68 ± 0.072"},
      {"sequence": "GKGPGCGFWQPAWRVWL [PRP8]", "protein stability index": "2.1 ± 0.19"},
      {"sequence": "GKGRFQTPAEKHAFMGT [RPL3]", "protein stability index": "2.98 ± 0.093"},
      {"sequence": "GKGTGKTAMAELALLNH [BRR2]", "protein stability index": "3.22 ± 0.082"},
      {"sequence": "GKLLLDEHNELMRQALA [RPO21]", "protein stability index": "2.84 ± 0.051"},
      {"sequence": "GKLVESEDSMNVQLRDV [SMD3]", "protein stability index": "3.26 ± 0.041"},
      {"sequence": "GKSTADVKSSDSLKLNS [YJL041W/NSP1]", "protein stability index": "3.32 ± 0.14"},
      {"sequence": "GKTTSCTKLAVYYSKRG [SRP54]", "protein stability index": "2.51 ± 0.098"},
      {"sequence": "GKVVKNVLLLDSNGDFN [RRP46]", "protein stability index": "3.27 ± 0.043"},
      {"sequence": "GKYVIAGHVSGVITVHN [RPN14]", "protein stability index": "3.23 ± 0.038"},
      {"sequence": "GLCMLGTGKPEAIHDMF [RPN2]", "protein stability index": "3.18 ± 0.075"},
      {"sequence": "GLDATKLYVSHIQVNQA [RPL17A]", "protein stability index": "3.05 ± 0.05"}
    ]}
  ]
}
